Assay [1] deals with T1, hGITR-ECD-hFc (human, UniProt Q9Y5U5 26-161).
T1 construct: ECD put first; also called immunogen A; human GITR extracellular domain protein with hFc tag; not shown: human IgG Fc fragment (hFc) of the pCpC vector
T1 chain: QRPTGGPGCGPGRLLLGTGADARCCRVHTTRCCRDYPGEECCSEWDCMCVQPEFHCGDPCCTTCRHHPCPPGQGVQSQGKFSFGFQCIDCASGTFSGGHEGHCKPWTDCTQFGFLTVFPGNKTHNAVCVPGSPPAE
The assay can be described thus: ELISA, hGITR-ECD-hFc coated on plate, HRP anti-human Fab detection. The method, then:
(§1) HGITR-ECD-hFc protein and cGITR-ECD-hFc protein were diluted to 1 μg/ml with PBS hydrochloric acid buffer (pH 7.2), and 100 μl dilution was added to 96-well ELISA microplate, and incubated at 4° C. overnight. The microplate was washed three times with 300 μl/well wash buffer PBST (PBS+0.05% Tween-20), 300 μl blocking buffer (PBST+1% BSA) was added to each well, and incubated at room temperature for 2 hours. The plate was washed three times, 100 μl, 10 μg/ml anti-GITR antibody was added to each well, and was incubated at 37° C. for 1 hour. The plate was washed three times, 100 μl horseradish peroxidase (HRP) labeled anti-human Fab secondary antibody was added to each well, and was incubated at 37° C. for half an hour. The plate was washed three times, 100 μl tetramethylbenzidine (TMB) was added to each well. After 15 minutes of color development, 50 μl 1N HCl termination solution was added to each well, and the OD450 value was read with a plate reader. The EC50 of the binding curve was calculated by GraphPad Prism software.
The binding activity of the engineered fully human anti-GITR antibody to the hGITR-ECD-hFc protein or the cGITR-ECD-hFc protein was detected by an enzyme-linked immunosorbent assay iaccording to the step (1) of Example 5.
Background: In an ELISA, binding on a coated surface is turned into a signal by an enzyme label.

The target in assay [2] is T2, human GITR (full length, on cells) (human, UniProt Q9Y5U5 26-241).
T2 construct: whole, on cells; Also used here for hGITR on the Jurkat reporter cells and on spleen cells of mice knocked-in with the human GITR gene; also called hGITR
T2 sequence (looked up): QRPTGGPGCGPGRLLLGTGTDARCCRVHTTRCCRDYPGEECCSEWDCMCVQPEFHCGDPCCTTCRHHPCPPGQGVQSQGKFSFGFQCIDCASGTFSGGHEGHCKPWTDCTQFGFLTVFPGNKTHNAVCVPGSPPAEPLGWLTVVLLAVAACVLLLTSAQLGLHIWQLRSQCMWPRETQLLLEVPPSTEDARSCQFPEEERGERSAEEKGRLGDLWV
The assay can be described thus: flow cytometry (FACS) on 293F-hGITR cells, MFI curve fit. The method, then: (§2) The pIRES plasmid with the monkey-derived GITR full-length gene was transfected into the HEK293 cell line to construct a HEK293 stable cell line containing monkey GITR (herein referred to as HEK293-cGITR stable cell line), wherein the database accession number of the monkey GITR nucleotide sequence is XP_005545180.1. The tool antibody Tab9H6v3 was constructed with reference to the patent (US_2015_0064204_A1). […] The medium was aspirated, and the cells were incubated with chimeric anti-GITR antibody or IgG1 isotype control antibody in PBS+2% FBS for 1 hour so that the antibody binds to the GITR protein expressed on the cell surface. Cells were collected and washed, and then incubated with anti-human antibody conjugated with fluorescent dye at 4° C. for 1 hour. Mean fluorescence intensity (MFI) of chimeric anti-GITR antibodies bound to cells expressing hGITR or cGITR was determined by flow cytometry. The EC50 of the fitting curve was calculated by GraphPad Prism software. The antibody to be tested can bind to human or monkey GITR protein on the cell surface. The data in the table is the average fluorescence intensity values of the cell populations measured by MFI.

The target of assay [3] is T1, hGITR-ECD-hFc. In words: ELISA, hGITR-ECD-hFc coated on plate, HRP anti-human Fab detection. The procedure: as §1
Assay [4] has as its target T2, human GITR (full length, on cells). The assay can be described thus: cell-based or functional assay.
The target in assay [5] is T1, hGITR-ECD-hFc. In words: SPR (Biacore T200), hGITR-ECD-hFc immobilised on CM5 chip, antibody as analyte. The method, then: (§3) The antigen hGITR-ECD-hFc was immobilized on the chip surface in manual mode using the running buffer HBS-EP+(10 mM HEPES, 150 mM NaCl, 3 mM EDTA, 0.05% P20, pH 7.4). First, a fresh mixture of 50 mM NHS and 200 mM EDC was used to activate the flow cell 4 of the tandem S CM5 sensor chip. The antigen was then diluted to 1 μg/ml with 10 mM NaAC (pH 5.0) and was injected into flow cell 4 for approximately 40 seconds. Finally, 1 M ethanolamine was used to block the remaining active coupling sites.
Buffer flow was maintained for 600 seconds to determine dissociation. To remove the test antibody from the surface, 10 mM Glycine-HCl (pH 1.5) was injected into flow cells 1 and 4 at a flow rate of 10 μ L/min for 30 seconds. The above steps were repeated for each concentration of continuously diluted antibodies.
The KD value of each antibody was evaluated using Biacore T200 evaluation software 3.0, where flow cell 1 was used as a reference flow cell.
(SPR reads the build-up and loss of mass on a sensor chip optically.)

In assay [6] the target is T2, human GITR (full length, on cells). In words: flow cytometry (FACS) on 293F-hGITR cells, MFI curve fit. The procedure: as §2
The source holds these as a separate data set. (In general: In flow cytometry, cells or beads pass a laser one at a time.)

The target is the same in assay [7]. The assay can be described thus: cell-based or functional assay. The source holds these as a separate data set.
For assay [8], the target named is T3, monkey GITR (full length, on cells) (monkey).
T3 construct: whole, on cells; also called cGITR
In words: flow cytometry (FACS) on 293F-cGITR cells, MFI curve fit. The procedure: as §2

Assay [9] has as its target T3, monkey GITR (full length, on cells). The description is as above. The method, then: as §2
The source holds these as a separate data set.

Assay [10] addresses T4, cGITR-ECD-hFc (rhesus; human, UniProt F7DDV8 14-149). In words: ELISA, cGITR-ECD-hFc coated on plate, HRP anti-human Fab detection.
The target in assay [11] is T4, cGITR-ECD-hFc. The description is as above. This is another data set of the same source.
In assay [12] the target is T1, hGITR-ECD-hFc. In words: SPR (Biacore), hGITR-ECD-hFc immobilised on CM5 chip, antibody as analyte. The procedure: as §3
Binding kinetics and affinity of the engineered fully human anti-GITR antibody to the antigen hGITR-ECD-hFc protein were tested by Biacore according to step (5) of Example 5, and the results are shown in Table 17.

Where two headings read alike, the source gives them in different places.

The EC50 is the concentration that produces a half-maximal response. The term Kd denotes the constant that tells how readily two partners part at equilibrium. For orientation: koff means the first-order rate constant of dissociation. In general, kon refers to the second-order rate constant of association.

T4 sequence (F7DDV8 entry or part of it): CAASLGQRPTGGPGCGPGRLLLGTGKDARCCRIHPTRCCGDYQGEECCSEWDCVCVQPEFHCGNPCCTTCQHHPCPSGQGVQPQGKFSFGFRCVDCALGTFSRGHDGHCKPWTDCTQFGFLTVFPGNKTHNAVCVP

B1: 3503-hab070 (antibody, V domains shown)
VH: QVQLVESGGGVVQPGRSLRLSCAASGFTFSSYGMHWVRQAPGKGLEWVAVIWYETSNKFYVDSVKGRFTISRDNSKNTLYLQMNSLRAEDTAVYYCARYGASSGWYWYFDLWGRGTLVTVSS
VL: DIQLTQSPSFLSASVGDRVTITCRASQGISSFLAWYQQKPGKAPKLLIYAASTLQSGVPSRFSGSGSGTEFTLTISSLQPEDFATYCCQQLNSYPFTFGQGTKLEIK
notes: also called 272G5E1; fully human anti-GITR antibody
On to B1, for which the EC50 in the assay with hGITR-ECD-hFc [1] was 0.078 nM; in assay [2] it was 0.141 nM; with hGITR-ECD-hFc [3] it was 0.0544 nM; in assay [6], 0.203 nM; in assay [8], 0.301 nM; in [9], 0.258 nM. Further, the values for the concentration giving a half-maximal response (EC50) in the assay with cGITR-ECD-hFc [10] and in the assay with cGITR-ECD-hFc [11] were 0.063 nM and 0.0529 nM, respectively. For the same molecule, the figures for the “Activation of NF-κB activity, EC50 (nM), Coupling” value (shortened to “Activation … (nM), Coupling”) in assay [4] and in [7] were 2.55 nM and 5.78 nM, respectively. For the same molecule, the “Activation of NF-κB activity, EC50 (nM), Non-coupling” value (“Activation … Non-coupling” for short) stood at 0.276 nM in [4] and 0.0959 nM in [7]. In the assay with hGITR-ECD-hFc [5], this molecule registered a Kd of 0.251 nM. Also, the koff with hGITR-ECD-hFc [5] stood at 0.000185 s⁻¹. The kon with hGITR-ECD-hFc [5] stood at 737000 M⁻¹ s⁻¹.

B2: 3503-hab070e1 (antibody, V domains shown)
VH: QVQLVESGGGVVQPGRSLRLSCAASGFTFSSYGMHWVRQAPGKGLEWVAVIWYETSNKFYVDSVKGRFTISRDNSKNTLYLQMNSLRAEDTAVYYCARYGASSGWYWYFDLWGRGTLVTVSS
VL: DIQLTQSPSFLSASVGDRVTITCRASQGISSFLAWYQQKPGKAPKLLIYAASTLQSGVPSRFSGSGSGTEFTLTISSLQPEDFATYYCQQLNSYPFTFGQGTKLEIK
notes: also called 272G5E1; engineered fully human anti-GITR antibody
Turning to B2, the EC50 with hGITR-ECD-hFc [1] was determined as 0.074 nM; in [2], 0.169 nM; in assay [9] it was 0.264 nM; in the assay with cGITR-ECD-hFc [10], 0.062 nM. This molecule also displayed an equilibrium dissociation constant (Kd) with hGITR-ECD-hFc [12] of 0.537 nM. The molecule further had a koff with hGITR-ECD-hFc [12] of 0.000381 s⁻¹. This molecule gave a kon in the assay with hGITR-ECD-hFc [12] of 710000 M⁻¹ s⁻¹. Further, in [7], the “Activation … (nM), Coupling” value is 4.08 nM. In addition, the “Activation … Non-coupling” value in assay [7] was 0.0957 nM.

B3: 3503-hab019 (antibody, V domains shown)
VH: QVQLVESGGGVVQPGRSLRLSCAASGFTFSSYGMHWVRQAPGKGLEWVAVIWYAGSRKFYADSVEGRFTISRDNSKNTLYLQMSSVRPEDTAVYYCARGGSLDGGFFYYGMDVWGQGTTVTVSS
VL: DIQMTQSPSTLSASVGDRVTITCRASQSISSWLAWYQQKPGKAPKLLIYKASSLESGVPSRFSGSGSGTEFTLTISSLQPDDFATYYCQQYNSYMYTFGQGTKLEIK
notes: also called 96A10H9; fully human anti-GITR antibody
Take B3: the EC50 with hGITR-ECD-hFc [1] worked out at 0.11 nM; in assay [2], 0.222 nM; with hGITR-ECD-hFc [3], 0.0791 nM; in [6], 0.25 nM; in [8], 0.53 nM; in assay [9] it was 0.418 nM. Also, the EC50 in the assay with cGITR-ECD-hFc [10] was found to be 0.115 nM; with cGITR-ECD-hFc [11], 0.0717 nM. Moreover, the “Activation … (nM), Coupling” value came to 4.42 nM in [4] and 10.9 nM in assay [7]. Moreover, the “Activation … Non-coupling” value in [4] was determined as 0.281 nM; in assay [7], 0.166 nM. The same molecule returned a Kd with hGITR-ECD-hFc [5] of 0.401 nM. Also, the koff with hGITR-ECD-hFc [5] turned out to be 0.000205 s⁻¹. Further, the kon with hGITR-ECD-hFc [5] was found to be 512000 M⁻¹ s⁻¹.

Values taken from patent US20220119541A1 (PHARMAEXPLORER, published 2022).
